In patent US20260241018A1 (BIOCYTOGEN PHARMACEUTICALS BEIJING, published 2026):

Assays:
Assay in all cases: SPR (Biacore 8K), antibody captured on Protein A chip, His-tagged 5T4 as analyte
[1] = target: T1, His-tagged 5T4 protein of human (h5T4, ACRO Biosystems Inc., Cat #: TPG-H52E5) (human, UniProt Q13641 32-355)
T1 construct: Bought protein; not shown: His tag
T1 sequence (looked up): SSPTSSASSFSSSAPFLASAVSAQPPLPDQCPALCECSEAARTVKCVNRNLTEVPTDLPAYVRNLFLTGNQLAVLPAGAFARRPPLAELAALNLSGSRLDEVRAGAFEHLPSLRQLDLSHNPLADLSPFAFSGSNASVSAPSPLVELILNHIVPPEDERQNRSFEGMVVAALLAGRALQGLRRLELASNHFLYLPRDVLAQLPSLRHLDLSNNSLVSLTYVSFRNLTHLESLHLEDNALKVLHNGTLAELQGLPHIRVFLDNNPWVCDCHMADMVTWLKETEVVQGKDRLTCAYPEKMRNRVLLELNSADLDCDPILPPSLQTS
Procedure: (§1) Purified anti-5T4 antibodies were diluted to 2 μg/mL and then injected into the Biacore™ 8K biosensor at 10 μL/min for about 50 seconds to achieve a desired protein density (e.g., about 50 response units (RU)). His-tagged 5T4 protein at a concentration of 200 nM was then injected at 30 μL/min for 180 seconds. Dissociation was monitored for 400 seconds. The chip was regenerated after the last injection of each titration with Glycine (pH 2.0), 30 μL/min for 30 seconds. For ISO control, an antibody targeting an irrelevant target protein was used.
(§2) As a person of ordinary skill in the art would understand, the same method with appropriate adjustments for parameters (e.g., antibody concentration) was performed for each tested antibody.

[2] = target: T2, His-tagged 5T4 protein of mouse (m5T4, ACRO Biosystems Inc., Cat #: TPG-M52H3) (mouse, UniProt Q9Z0L0 32-361, limits assumed)
T2 construct: Bought protein; not shown: His tag
T2 sequence (looked up): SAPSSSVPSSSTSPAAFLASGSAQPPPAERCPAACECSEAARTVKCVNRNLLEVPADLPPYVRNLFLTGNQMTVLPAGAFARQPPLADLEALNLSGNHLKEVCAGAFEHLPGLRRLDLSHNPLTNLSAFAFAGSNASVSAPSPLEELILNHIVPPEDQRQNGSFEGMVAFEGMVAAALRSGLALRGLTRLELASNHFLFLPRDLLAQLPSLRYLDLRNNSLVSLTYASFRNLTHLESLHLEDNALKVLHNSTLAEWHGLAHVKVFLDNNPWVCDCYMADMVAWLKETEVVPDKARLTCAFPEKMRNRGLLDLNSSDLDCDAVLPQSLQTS
Procedure: as §1, §2

[3] = target: T3, His-tagged 5T4 protein of monkey (fas5T4, ACRO Biosystems Inc., Cat #: TPG-C52H3) (monkey, UniProt Q4R8Y9 35-355)
T3 construct: Bought protein
T3 sequence: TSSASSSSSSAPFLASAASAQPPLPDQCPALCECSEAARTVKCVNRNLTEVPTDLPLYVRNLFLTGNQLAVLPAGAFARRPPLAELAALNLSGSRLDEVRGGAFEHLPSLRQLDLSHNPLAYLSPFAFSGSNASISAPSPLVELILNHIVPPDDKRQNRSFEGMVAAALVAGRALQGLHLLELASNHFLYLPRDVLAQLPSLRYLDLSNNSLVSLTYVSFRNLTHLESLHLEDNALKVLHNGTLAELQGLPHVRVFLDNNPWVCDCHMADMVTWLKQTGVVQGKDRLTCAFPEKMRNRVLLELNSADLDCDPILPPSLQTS
Procedure: as §1, §2

B1: MAB2 analog-SI (antibody, V domains shown)
VH: QVQLQQPGAELVKPGASVKMSCKASGYTFTSYWITWVKQRPGQGLEWIGDIYPGSGRANYNEKFKSKATLTVDTSSSTAYMQLSSLTSEDSAVYNCARYGPLFTTVVDPNSYAMDYWGQGTSVTVSS
VL: DVLMTQTPLSLPVSLGDQASISCRSSQSIVYSNGNTYLEWYLQKPGQSPKLLIYKVSNRFSGVPDRFSGSGSGTDFTLKISRVEAEDLGVYYCFQGSHVPFTFGSGTKLEIK
notes: MAB2 is a humanized IgG1 monoclonal antibody targeting 5T4
Kd [1]: 22.5 nM
koff [1]: 0.00292 s⁻¹
kon [1]: 130000 M⁻¹ s⁻¹
binding result [2]: no binding (tested: 200 nM)
Kd [3]: 55.1 nM
koff [3]: 0.00545 s⁻¹
kon [3]: 99000 M⁻¹ s⁻¹
